Test results published in US5935824A, “Protein expression system” (Technologene, Inc., priority 1996, dated 1999).
No end group written: not given here.

Experiments:
[1] = target: T1, carboxypeptidase Y (CPD-Y) immobilized to Acti-Disk (Saccharomyces cerevisiae, UniProt P00729); settings: free CPD-Y; deduced from Kuhn; cited from earlier work
T1 construct: purchased Sigma
T1 sequence (P00729 112-532): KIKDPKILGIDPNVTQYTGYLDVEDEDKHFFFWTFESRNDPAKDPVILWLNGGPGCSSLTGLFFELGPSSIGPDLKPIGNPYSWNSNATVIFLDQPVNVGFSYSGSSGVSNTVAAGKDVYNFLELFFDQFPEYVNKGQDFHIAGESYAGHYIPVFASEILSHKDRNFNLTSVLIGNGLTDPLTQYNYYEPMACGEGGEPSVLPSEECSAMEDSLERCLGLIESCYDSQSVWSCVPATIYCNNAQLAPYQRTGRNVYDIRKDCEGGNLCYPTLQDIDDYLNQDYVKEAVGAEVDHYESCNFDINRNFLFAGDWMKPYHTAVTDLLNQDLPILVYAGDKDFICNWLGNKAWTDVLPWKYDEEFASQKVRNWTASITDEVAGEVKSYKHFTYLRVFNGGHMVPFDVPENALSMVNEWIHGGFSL

[2] = target: T2, CPD-Y immobilized on cross-linked agarose (Saccharomyces cerevisiae, UniProt P00729); assay: Recirculating digestion of control peptide over CPD-Y/agarose column, HPLC; format: biochemical, yeast; settings: 100 μg/ml in PBS pH 6.5; gravity flow
T2 construct: purchased Pierce
T2 sequence (P00729 112-532): T1 sequence (P00729 112-532)
Experimental: Ten milliliters of a solution containing 100 μg/ml of the control peptide in PBS (pH 6.5) was repeatedly passed through 1 ml of a matrix consisting of CPD-Y immobilized on cross-linked agarose (12.5 U/ml, Pierce). The 10 ml sample was applied to the top of a 1.0 cm Affinica column (Schleicher & Schuell) containing 1.0 ml of the immobilized CPD-Y/agarose and allowed to flow by gravity. An aliquot (100 μl) of the digestion reaction were taken and the remaining sample was reapplied to the column as the previous sample approached the matrix (i.e., the sample was recirculated through the column). Aliquots (100 μl) were removed after 1, 5, 11 and 17 passes over the immobilized CPD-Y/agarose column; 20 μl of these aliquots were analyzed by high pressure liquid chromatography (HPLC) using a TFA/acetonitrile gradient and a C-18 column (Hytach protein column). A Shimadzu HPLC spectrophotometer equipped with a UV recorder was adjusted to analyze the digestion products at 210 nm. The following buffers were used for the HPLC analysis. Buffer A consisted of 1.125% TFA and Buffer B consisted of 1.0% TFA in 80% acetonitrile. To achieve separation of the peptides produced by CPD-Y digestion of the control peptide, a gradient of 0-30% B buffer was applied over a 30 minute period.

[3] = target: T1, carboxypeptidase Y (CPD-Y) immobilized to Acti-Disk; assay: Flow digestion of control peptide through CPD-Y immobilized on Acti-Disk, HPLC analysis; format: biochemical, yeast
Experimental: To achieve limited, specific digestion of the control peptide (i.e., removal of the phenylalanine residue only) approximately 4 mg of CPD-Y (Sigma) was immobilized to a pre-activated (GTA) Acti-Disk Cartridge (25 mm; Arbor Technologies). The silicon-based matrix within the Acti-Disk is described in U.S. Pat. No. 3,862,030, the disclosure of which is herein incorporated by reference. Essentially, this matrix is a microporous fluid-permeable filter that has finely divided hydrophilic filler particles dispersed throughout a microporous matrix which are capable of binding large amounts of protein or enzyme. The matrix has an extremely large surface area (80 m^2 /gram) attributed to a large number of interconnected pores of non-uniform size distribution. The matrix is 60% porous and is commercially available in a wide variety of sizes and thicknesses for scale-up. This matrix represents a limited-diffusional matrix.
Immobilization of CPD-Y to the Acti-Disk cartridge was accomplished by recirculating 10 mls of a solution containing 1 mg/ml CPD-Y in 100 mM Na Citrate (pH 6.0) through the Acti-Disk according to the manufacturers protocol for 90 minutes at room temperature. The OD280 of the CPD-Y solution was measured before and after the immobilization procedure. The disk was washed extensively with 100 mM Tris-HCl (pH 8.0), 500 mM NaCl buffer until no protein was detected in the wash. The final concentration of enzyme per available fluid volume within the disk (65 nmoles/115 μl) was 0.565 mM (35 mg/ml). The porous nature of the Acti-Disk matrix immobilizes the carboxypeptidase enzyme on the […] of the matrix allowing a more consistent exposure of the substrate to enzyme than do the traditional cross linked agarose matrixes.
The control peptide (SEQ ID NO:70), at a concentration of 100 μg/ml, was passed through the CPD-Y Disk at flow rates ranging from 4 ml/min to 100 μl/min; a […] pump (Pharmacia) was used to regulate the flow. A 2 ml sample of the flow digestion at 4 ml/min was collected. The setting on the peristaltic pump was changed to 3 ml/min and the reaction was allowed to equilibrate. Five milliliters of the solution containing the control peptide processed at the lower flow rate (3 ml/min) was allowed to pass through the exit tubing before another 2 ml sample was collected. This procedure was repeated at each designated flow rate. An aliquot (25 μl) of each sample was run on the Hytach protein column as described above. In Table 4 the time refers to time spent in the reaction chamber (i.e., the Acti-Disk).
This value was determined by comparing the initial velocity of the control peptide CPD-Y-Acti-Disk flow digestion to the manufacturer's specific activity for free enzyme (i.e., enzyme present in solution) through the use of the Michaelis-Menton rate equation. The specific activity for Phe-Ala substrate 100 μmoles/mg (Sigma) was converted to activity by multiplying by the amount of enzyme immobilized within the Acti-Disk matrix (4 mg). […] This value compares well to the value that can be approximated from the Kcat data provided by Kuhn. The Kcat value for the cleavage of the Ser-Phe bond by free CPD-Y can be deduced from Kuhn's data to be approximately 400/min and this value was used to calculate the maximum initial velocity (Vo at [S]=79 μM) for 100% activity of the immobilized enzyme. […] 100% activity (Vo) for 79 μM flow digestion experiments is calculated using the theoretical KM =0.69 mM deduced from Kuhn's data, Vo=23.2 mM/min. Initial velocity Vo for control peptide flow experiments were determined by plotting μM of product produced versus seconds of incubation within the immobilization matrix of the Acti-Disk (see FIG. 29).
In FIG. 29, the log ([S]/[S]-[P]) (in μM) is plotted against the incubation time (in seconds). For the results shown in FIG. 29, the following calculations apply: the 4000 μl/min flow rate through 115 μl reaction matrix equals 1.73 seconds within the matrix. […]

[4] = target: T1, carboxypeptidase Y (CPD-Y) immobilized to Acti-Disk; assay: Flow digestion of Lys-Lys peptide through CPD-Y Acti Disk, modified ninhydrin assay; format: biochemical, yeast; settings: 400 μM peptide; pH 5.75; flow 2 ml/min and 500 μl/min
Experimental: The peptide sequence is […](SEQ ID NO:73) (Sigma; herein after referred to as the Lys-Lys peptide). Analysis of the of the reaction rates required the use of a modified ninhydrin assay developed by Doi, et al. for the analysis of peptidase activity [Anal. Biochem. 118:173 (1981)]. Compared to the ninhydrin assays described above, the pH of the ninhydrin solution is reduced (pH=4.6) and the heating time is shortened (less than or equal to 20 minutes) such that only free amino acids react at appreciable rates. Incubation times were strictly controlled by performing incubation at elevated temperatures in a programmable thermocycler (Hybaid).
The Lys-Lys peptide was suspended at a concentration of 400 μM in 100 mM Citrate buffer, 100 mM NaCl, pH 5.75 and subjected to flow digestions at 2 ml/min and 500 μl/min. The amount of free lysine released was quantified by mixing 200 μl of flow sample with 200 μl 0.2 M NaCitrate, pH 4.6 and 100 μl of 2.5% ninhydrin in methyl cellusolve (Sigma), 0.03% ascorbic acid. […] The OD570 was determined and the values were converted to μM of product in order to determine the first order rate constant for the Lys-Lys bond in the CPD-Y Acti Disk flow digestion (k=0.160). This is the same value determined for the N-CBZ-Gly-Pro dipeptide. […]

Q: Which “Estimated Km for the Ser-Phe bond” value [1] does the source give for ALKDAQTNSSSF [control peptide] here?
A: The value was 690 µM.

Q: And the “Kcat for the Ser-Phe bond” value [1]?
A: Its value is 6.67 s⁻¹.

Q: What about the “Passes needed to substantially decrease the amount of full length peptide” value [2] of the same sequence?
A: Its value is greater than 15 passes.

Q: What about the “Initial reaction rate (Vo), observed” value ([3]; 79 μM control peptide, initial slope of fitted curve) of the same sequence?
A: Its value is roughly 3.6 mM/min.

Q: And the “Cleavage of the ultimate bond (Ser-Phe)” value ([3]; 100 μg/ml, single pass, flow rate 500 μl/ml (so in the source))?
A: The value was 86%.

Q: What about the “Cleavage of the ultimate bond (Ser-Phe)” value ([3]; 5 ml recirculated 20 minutes at the same flow rate) of the same sequence?
A: The value was 96%.

Q: What about the “Vmax for 100% activity” value ([3]; Kcat 400/min × 0.565 mM enzyme) of the same sequence?
A: The value was 226 mM/min.

Q: What about the “Vo for 100% activity of the immobilized enzyme” value ([3]; [S]=79 μM, theoretical KM 0.69 mM) of the same sequence?
A: The value was 23.2 mM/min.

Q: And the “Product” value ([3]; control peptide 100 μg/ml, flow rate 0.25 ml/min, 27.6 sec in Acti-Disk)?
A: Its value is 72 µM.

Q: And the “% Product Remaining” value ([3]; control peptide 100 μg/ml, flow rate 0.25 ml/min, 27.6 sec in Acti-Disk, 0.46 min)?
A: Its value is 8.3%.

Q: And the “Product” value ([3]; flow rate 0.50 ml/min, 13.8 sec)?
A: The value was 68 µM.

Q: And the “% Product Remaining” value ([3]; flow rate 0.50 ml/min, 13.8 sec, 0.23 min)?
A: The value was 14.0%.

Q: And the “Product” value ([3]; flow rate 1.0 ml/min, 6.9 sec)?
A: Its value is 59 µM.

Q: What about the “% Product Remaining” value ([3]; flow rate 1.0 ml/min, 6.9 sec, 0.115 min) of the same sequence?
A: Its value is 25.6%.

Q: What about the “Product” value ([3]; flow rate 1.5 ml/min, 4.6 sec) of the same sequence?
A: The value was 54 µM.

Q: What about the “% Product Remaining” value ([3]; flow rate 1.5 ml/min, 4.6 sec, 0.0766667 min) of the same sequence?
A: Its value is 32.4%.

Q: What about the “Product” value ([3]; flow rate 2.0 ml/min, 3.45 sec) of the same sequence?
A: The value was 48 µM.

Q: What about the “% Product Remaining” value ([3]; flow rate 2.0 ml/min, 3.45 sec, 0.0575 min) of the same sequence?
A: Its value is 38.7%.

Q: What about the “Product” value ([3]; flow rate 2.5 ml/min, 2.76 sec) of the same sequence?
A: The value was 45 µM.

Q: What about the “% Product Remaining” value ([3]; flow rate 2.5 ml/min, 2.76 sec, 0.046 min) of the same sequence?
A: Its value is 42.8%.

Q: And the “Product” value ([3]; flow rate 3.0 ml/min, 2.3 sec)?
A: Its value is 43 µM.

Q: What about the “% Product Remaining” value ([3]; flow rate 3.0 ml/min, 2.3 sec, 0.0383333 min) of the same sequence?
A: Its value is 46.4%.

Q: And the “Product” value ([3]; flow rate 4.0 ml/min, 1.73 sec)?
A: The value was 39 µM.

Q: And the “% Product Remaining” value ([3]; flow rate 4.0 ml/min, 1.73 sec, 0.0288333 min)?
A: Its value is 51.5%.

Q: What about the “Cleavage of the second bond (Ser-Ser)” value ([3]; recirculation at 500 μl/min) of the same sequence?
A: The value was “not detectably cleaved”.

Q: What about the “Control peptide molecules with carboxy-terminal phenylalanine removed” value ([3]; varied flow rate and substrate concentration) of the same sequence?
A: Its value is “approximately 96%”.

Q: With PLSRLSVAKK [Lys-Lys peptide] as the sequence, how does the “First order rate constant for the Lys-Lys bond (k)” value [4] read?
A: The value was 0.160.
